Test results from IntAct's records for PubMed 20142502.

B1: pre-mRNA splicing regulator USH1G (Homo sapiens), Q495M9 (parent)
chain: MNDQYHRAARDGYLELLKEATRKELNAPDEDGMTPTLWAAYHGNLESLRLIVSRGGDPDKCDIWGNTPLHLAASNGHLHCLSFLVSFGANIWCLDNDYHTPLDMAAMKGHMECVRYLDSIAAKQSSLNPKLVGKLKDKAFREAERRIRECAKLQRRHHERMERRYRRELAERSDTLSFSSLTSSTLSRRLQHLALGSHLPYSQATLHGTARGKTKMQKKLERRKQGGEGTFKVSEDGRKSARSLSGLQLGSDVMFVRQGTYANPKEWGRAPLRDMFLSDEDSVSRATLAAEPAHSEVSTDSGHDSLFTRPGLGTMVFRRNYLSSGLHGLGREDGGLDGVGAPRGRLQSSPSLDDDSLGSANSLQDRSCGEELPWDELDLGLDEDLEPETSPLETFLASLHMEDFAALLRQEKIDLEALMLCSDLDLRSISVPLGPRKKILGAVRRRRQAMERPPALEDTEL
partner: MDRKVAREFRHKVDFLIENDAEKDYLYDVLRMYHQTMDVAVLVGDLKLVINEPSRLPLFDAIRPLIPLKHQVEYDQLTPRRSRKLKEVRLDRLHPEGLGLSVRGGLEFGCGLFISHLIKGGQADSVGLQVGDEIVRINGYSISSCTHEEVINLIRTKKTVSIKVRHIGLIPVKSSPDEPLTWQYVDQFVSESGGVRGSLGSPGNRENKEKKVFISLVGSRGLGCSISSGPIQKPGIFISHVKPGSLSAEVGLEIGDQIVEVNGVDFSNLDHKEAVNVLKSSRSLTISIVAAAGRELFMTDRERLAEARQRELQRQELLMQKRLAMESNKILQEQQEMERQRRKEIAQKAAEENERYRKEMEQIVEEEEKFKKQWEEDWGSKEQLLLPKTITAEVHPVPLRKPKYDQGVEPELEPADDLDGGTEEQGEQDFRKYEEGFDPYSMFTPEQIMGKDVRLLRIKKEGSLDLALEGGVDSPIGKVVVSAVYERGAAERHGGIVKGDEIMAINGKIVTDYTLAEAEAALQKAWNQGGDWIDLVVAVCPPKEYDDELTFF
B2: Harmonin (Homo sapiens), Q9Y6N9 (parent)
chain: B1 partner
partner: B1 chain

Variants of: B1
Conditions: with ush1c_human USH1C, Q9Y6N9

effect of a mutation on the interaction	Variant
decreasing interaction	MNDQYHRAARDGYLELLKEATRKELNAPDEDGMTPTLWAAYHGNLESLRLIVSRGGDPDKCDIWGNTPLHLAASNGHLHCLSFLVSFGANIWCLDNDYHTPLDMAAMKGHMECVRYLDSIAAKQSSLNPKLVGKLKDKAFREAERRIRECAKLQRRHHERMERRYRRELAERSDTLSFSSLTSSTLSRRLQHLALGSHLPYSQATLHGTARGKTKMQKKLERRKQGGEGTFKVSEDGRKSARSLSGLQLGSDVMFVRQGTYANPKEWGRAPLRDMFLSDEDSVSRATLAAEPAHSEVSTDSGHDSLFTRPGLGTMVFRRNYLSSGLHGLGREDGGLDGVGAPRGRLQSSPSLDDDSLGSANSLQDRSCGEELPWDELDLGLDEDLEPETSPLETFLASLHMEDFAALLRQEKIDLEALMLCSDLDLRSISVPLGPRKKILGAVRRRRQAMERPPALEVTEL [D458V]

Variants of: B2
Conditions: with ush1g_human USH1G, Q495M9

effect of a mutation on the interaction	Variant
decreasing interaction	MDRKVAREFRHKVDFLIENDAEKDYLYDVLRMYHQTMDVAVLVGDLKLVINEPSRLPLFDAIRPLIPLKHQVEYDQLTPRRSRKLKEVRLDRLHPEGLGLSVHGGLEFGCGLFISHLIKGGQADSVGLQVGDEIVRINGYSISSCTHEEVINLIRTKKTVSIKVRHIGLIPVKSSPDEPLTWQYVDQFVSESGGVRGSLGSPGNRENKEKKVFISLVGSRGLGCSISSGPIQKPGIFISHVKPGSLSAEVGLEIGDQIVEVNGVDFSNLDHKEAVNVLKSSRSLTISIVAAAGRELFMTDRERLAEARQRELQRQELLMQKRLAMESNKILQEQQEMERQRRKEIAQKAAEENERYRKEMEQIVEEEEKFKKQWEEDWGSKEQLLLPKTITAEVHPVPLRKPKYDQGVEPELEPADDLDGGTEEQGEQDFRKYEEGFDPYSMFTPEQIMGKDVRLLRIKKEGSLDLALEGGVDSPIGKVVVSAVYERGAAERHGGIVKGDEIMAINGKIVTDYTLAEAEAALQKAWNQGGDWIDLVVAVCPPKEYDDELTFF [R103H]
